Test results reported in PMC4409726, “Characterization of chromosomal and megaplasmid partitioning loci in Thermus thermophilus HB27”.

Legend:
ParBm = target: T1, ParBm (Thermus thermophilus HB27, UniProt Q746H2 1-297); test: EMSA; poly(dI-dC); WT competitor competes much better than mutant; 50 mM KCl, 10 mM Tris-HCl pH 7.0, 1 mM EDTA, 1 mM DTT, 4% glycerol, 0.02 ug/ul poly(dI-dC), 25 ul, 15 pmol FAM probe, 0 or 200 pmol ParB (competition), 25 C 30; details: protein: recombinant; tags: His tag implied (pET21a, Ni-IDA); chain copies: 2; blunt
T1 sequence: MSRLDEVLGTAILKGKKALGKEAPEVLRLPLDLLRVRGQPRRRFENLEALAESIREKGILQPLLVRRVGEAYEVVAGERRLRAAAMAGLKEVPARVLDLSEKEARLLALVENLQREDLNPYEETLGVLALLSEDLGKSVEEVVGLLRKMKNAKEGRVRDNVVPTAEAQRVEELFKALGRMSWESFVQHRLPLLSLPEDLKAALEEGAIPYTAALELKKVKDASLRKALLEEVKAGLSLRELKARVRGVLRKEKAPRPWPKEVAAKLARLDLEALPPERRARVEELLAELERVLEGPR

ParBc = target: T2, ParBc (Thermus thermophilus HB27, UniProt Q72H91 1-269); test: as above; details: protein: recombinant; tags: His tag implied (pET21a, Ni-IDA); chain copies: 2; blunt
T2 sequence: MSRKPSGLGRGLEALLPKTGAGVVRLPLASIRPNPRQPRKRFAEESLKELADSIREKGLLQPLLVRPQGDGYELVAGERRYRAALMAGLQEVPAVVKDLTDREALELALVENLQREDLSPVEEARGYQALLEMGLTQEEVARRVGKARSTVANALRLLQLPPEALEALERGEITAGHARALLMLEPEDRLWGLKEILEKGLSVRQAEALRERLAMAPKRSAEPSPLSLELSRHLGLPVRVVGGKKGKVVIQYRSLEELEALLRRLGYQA

B1: WT parSm 18-bp probe (dsDNA)
DNA 1: GCAAGGACGCGTCCTTCA
DNA 2: TGAAGGACGCGTCCTTGC
Question: Does B1 bind (ParBm)?
Answer: binds

B2: WT parSc 25-bp probe (dsDNA)
DNA 1: TGTTTCCCGTGAAACATCAGGCGCC
DNA 2: GGCGCCTGATGTTTCACGGGAAACA
Question: Does B2 bind (ParBc)?
Answer: binds
